These results are taken from article PMC2174947, “Transcriptional regulation of human eosinophil RNases by an evolutionary- conserved sequence motif in primate genome”.

The target in the data set is T1, GST-MAZ (UniProt P56270 1-477).
T1 sequence: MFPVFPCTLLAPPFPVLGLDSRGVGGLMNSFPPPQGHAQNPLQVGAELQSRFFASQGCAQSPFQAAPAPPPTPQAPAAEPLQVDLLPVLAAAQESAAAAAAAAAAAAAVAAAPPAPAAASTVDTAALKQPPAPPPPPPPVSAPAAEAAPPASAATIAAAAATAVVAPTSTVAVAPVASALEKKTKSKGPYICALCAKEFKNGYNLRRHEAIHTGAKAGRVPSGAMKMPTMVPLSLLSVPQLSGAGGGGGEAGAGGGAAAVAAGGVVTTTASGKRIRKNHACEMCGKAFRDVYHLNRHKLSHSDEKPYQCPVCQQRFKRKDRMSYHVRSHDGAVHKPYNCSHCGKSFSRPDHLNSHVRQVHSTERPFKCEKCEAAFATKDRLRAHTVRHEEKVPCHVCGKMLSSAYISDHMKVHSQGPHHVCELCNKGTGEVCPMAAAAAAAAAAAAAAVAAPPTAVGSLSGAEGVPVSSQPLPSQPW
Nature of the data set: EMSA; EMSA: 10 mM Tris-HCl pH 7.5, 50 mM NaCl, 5 mM MgCl2, 1 mM EDTA, 10% glycerol, 1 ug poly(dI-dC), 30 C 30 min; DAPA: 20 mM HEPES pH 7.6, 10 mM (NH4)2SO4, 1 mM EDTA, 1 mM DTT, 1% Tween 20, 100 mM KCl, 4 C. The following applies: protein: recombinant; label: 32P 5' end; blunt.

B1: wt 34-nt EMSA probe (dsDNA)
DNA 1: GCCAAGAGCCAGACCCTCCCTCTGGGCTCTGCTGGCCCA
DNA 2: TGGGCCAGCAGAGCCCAGAGGGAGGGTCTGGCTCTTGGC
For the molecule B1, the binding result is recorded as “binds”.
